Measurements reported in patent US8106168B2, “Metalloproteinase binding proteins” (Dyax Corp., priority 2005, dated 2012).
Where a chain is given by its changes, count along the chain named.

B1: M0040-A11: human antibody (Fab, IgG) that binds and inhibits MMP-14; HC SEQ ID NO: 164, LC SEQ ID NO: 165 (antibody, V domains shown)
VH: EVQLLESGGGLVQPGGSLRLSCAASGFTFSHYVMFWVRQAPGKGLEWVSRIVPSGGATMYADSVKGRFTISRDNSKNTLYLQMNSLRAEDTAVYYCARDRPLYDSSGYVDYWGQGTLVTVSS
VL: QSALTQPPSASGSPGQSVTISCTGTSSDVGAYNYVSWYQQHPDKAPKLIIYNVNERPSGVPDRFSGSKSGNTASLTVSGLQAEDEADYYCTSYAGSNKIGVSGTGTKVTVL
modifications: Synthetically generated peptide
B2: M0038-E06: human antibody (Fab, IgG) that binds and inhibits MMP-14; HC SEQ ID NO: 154, LC SEQ ID NO: 155 (antibody, V domains shown)
VH: EVQLLESGGGLVQPGGSLRLSCAASGFTFSPYVMHWVRQAPGKGLEWVSSISPSGGWTYYADSVKGRFTISRDNSKNTLYLQMNSLRAEDMAVYYCARGTGAYGMDVWGQGTTVTVSS
VL: QDIQMTQSPGTLSLSPGDRATLSCGASQLVVSNYIAWYQQKPGQAPRLLMYAGSIRATGIPDRFSGSGSGTDFTLTISRLEPEDFAIYYCQQRSNWPWTFGQGTKVEIK
modifications: Synthetically generated peptide
B3: M0043-C03: Fab that binds human MMP-14; DNA LV SEQ ID NO: 128, HV SEQ ID NO: 129 (antibody, V domains shown)
VL: QDIQMTQSPASLYLSPGERATLSCRASQSVSSNLAWYQQKPGQAPRLLIYGASTRATGIPARFSGSGSGTEFTLTISSLQSADFAVYYCQQYDNWPPLTFGGGTKVEIK
VH: EVQLLESGGGLVQPGGSLRLSCAASGFTFSYYAMDWVRQAPGKGLEWVSSIGSSGGDTVYADSVKGRFTISRDNSKNTLYLQMNSLRAEDTATYYCARDPRQPGVFDYWGQGTLVTVSS
modifications: Synthetically generated oligonucleotide
B4: M0043-A09: Fab that binds human MMP-14; DNA LV SEQ ID NO: 126, HV SEQ ID NO: 127 (antibody, V domains shown)
VL: QSVLTQPPSVSKDLRQTATLTCTGNSNNVGYQGAAWLQQHQGHPPKVLSYRNNNRPSGISERFSASRSGNTASLTITGLQPEDEADYYCSAWDSSLTAWVFGGGTKLTVL
VH: EVQLLESGGGLVQPGGSLRLSCAASGFTFSFYDMTWVRQAPGKGLEWVSSIWSSGGVTDYADSVKGRFTISRDNSKNTLYLQMNSLRAEDTAVYYCTRASSGYYDAFDIWGQGTMVTVSS
modifications: Synthetically generated oligonucleotide
B5: M0043-G01: Fab that binds human MMP-14; DNA LV SEQ ID NO: 132, HV SEQ ID NO: 133 (antibody, V domains shown)
VL: QDIQMTQSPSAMSASVGDRVTITCRASQGISSWLAWYQQKPGKAPKLLIYAASSLQSGVPSRFSGSGSGTDFTLTISSLQPEDFATYYCQQANSFPLTFGGGTKVEIK
VH: EVQLLESGGGLVQPGGSLRLSCAASGFTFSFYSMHWVRQAPGKGLEWVSGISSSGGVTKYADSVKGRFTISRDNSKNTLYLQMNSLRAEDTAVYYCARARSTRGFDYWGQGTLVTVSS
modifications: Synthetically generated oligonucleotide
B6: M0044-B03: Fab that binds human MMP-14; DNA LV SEQ ID NO: 136, HV SEQ ID NO: 137 (antibody, V domains shown)
VL: B5 VL with A11S, M12V, G29N, S31Y, K40R, Q56H, N93K, L97V
VH: EVQLLESGGGLVQPGGSLRLSCAASGFTFSQYHMMWVRQAPGKGLEWVSSIGSSGYTKYADSVKGRFTISRDNSKNTLYLQMNSLRAEDTAVYYCAGAVAGTGAFDYWGQGTLVTVSS
modifications: Synthetically generated oligonucleotide
B7: M0042-B07: Fab that binds human MMP-14; DNA LV SEQ ID NO: 122, HV SEQ ID NO: 123 (antibody, V domains shown)
VL: QDIQMTQSPLSLPVTPGEPASISCRSSQSLLHSNGYNYLDWYVQKPGQSPQLLIYLGSGRASGVPDRFSGSGSGTDFTLKINRVEAEDVGVYYCMQALQTPWTFGQGTKVEIK
VH: EVQLLESGGGLVQPGGSLRLSCAASGFTFSPYSMFWVRQAPGKGLEWVSVIYPSGGGTIYADSVKGRFTISRDNSKNTLYLQMNSLRAEDTAVYYCARSRESCDADTCYQYFQEWGQGTLVTVSS
modifications: Synthetically generated oligonucleotide
B8: M0044-D08: Fab that binds human MMP-14; DNA LV SEQ ID NO: 138, HV SEQ ID NO: 139 (antibody, V domains shown)
VL: QYELTQPLSVSVALGQTASISCWGHNIRIKNVHWYQQKPGQAPVVVMYIPERFSGSTSGNTATLTISGAQAGDEADYYCQVWDSSTVVFGGGTKLTVL
VH: EVQLLESGGGLVQPGGSLRLSCAASGFTFSKYPMSWVRQAPGKGLEWVSSIWPSGGHTFYADSVKGRFTISRDNSKNTLYLQMNSLRAEDTAVYYCAKNPGLRYAFDNWGRGTMVTVSS
modifications: Synthetically generated oligonucleotide
B9: M0043-F01: Fab that binds human MMP-14; DNA LV SEQ ID NO: 130, HV SEQ ID NO: 131 (antibody, V domains shown)
VL: QSALTQPASVSGSPGQSITISCTGTSSDIGAYRYVSWYQQRPGKAPKLMIFDVTKRPSGVSNRFSGFKSGNTASLTISGLQAEDEADYYCSSFTSGSTFVFGTGTKVTVL
VH: EVQLLESGGGLVQPGGSLRLSCAASGFTFSKYSMYWVRQAPGKGLEWVSSISSSGGYTAYADSVKGRFTISRDNSKNTLYLQMNSLRAEDTAVYYCAIPWGSGSSWGQGTLVTVSS
modifications: Synthetically generated oligonucleotide
B10: M0032-B09: Fab that binds human MMP-14; DNA LV SEQ ID NO: 22, HV SEQ ID NO: 23 (antibody, V domains shown)
VH: EVQLLESGGGLVQPGGSLRLSCAASGFTFSIYKMVWVRQAPGKGLEWVSSIGSSGGHTRYADSVKGRFTISRDNSKNTLYLQMNSLRAEDTAVYYCARAPYYYYMDVWGKGTTVTVSS
VL: QDIQMTQSPSSVSASVGDTVTITCRASQGISTWLAWYQHKPGKAPKLLIYAGPSLQSGVPSRFSGSGSGTEFTLTISSLHPEDFATYYCQQLNHYPMTFGQGTRLEIK
modifications: Synthetically generated oligonucleotide
B11: M0032-B07: Fab that binds human MMP-14; DNA LV SEQ ID NO: 20, HV SEQ ID NO: 21 (antibody, V domains shown)
VH: EVQLLESGGGLVQPGGSLRLSCAASGFTFSPYLMHWVRQAPGKGLEWVSSIYPSGGITQYADSVKGRFTISRDNSKNTLYLQMNSLRAEDTAVYYCARFFPSHRDYTAFDTWGRGTLVTVSS
VL: QSVLTQEPSLTVSPGGTVTLTCASNTGAVTSGSYANWFQQKPGLTPRALIYSGTNKYSWTPARFSGSLFGGKAALTLSGVLPEDEAEYYCLVYYGGVWVFGGGTKLTVL
modifications: Synthetically generated oligonucleotide

molecular target: T1, MMP-14 (Homo sapiens, UniProt P50281); assay: Selection and phage ELISA screening of anti-MMP-14 Fabs; type: binding; settings: Fab from FAB310 phage display library
In short: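 The FAB310 phage library was panned on biotinylated MMP-14, alone or complexed with bead-bound TIMP-2, at 500 nM and then 100 nM over three rounds. Phage was eluted with 2.5 μM TIMP-2, then 100 mM TEA. For ELISA, 95 clones per round were screened against 1 μg/ml biotinylated MMP-14 captured on streptavidin in TRIS/5 mM CaCl2, pH 7.5.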

| bind to human MMP-14 | Molecule |
| --- | --- |
| bind to human MMP-14 | B1 |
| bind to human MMP-14 | B2 |
| bind to human MMP-14 | B3 |
| bind to human MMP-14 | B4 |
| bind to human MMP-14 | B5 |
| bind to human MMP-14 | B6 |
| bind to human MMP-14 | B7 |
| bind to human MMP-14 | B8 |
| bind to human MMP-14 | B9 |
| bind to human MMP-14 | B10 |
| bind to human MMP-14 | B11 |

molecular target: T1, MMP-14; assay: IC50 for MMP-14 inhibition by Fabs and IgGs; type: biochemical; settings: Fab
Procedure: MMP-14 binding proteins can be characterized in assays that measure their modulatory activity toward MMP-14 or fragments thereof in vitro or in vivo. For example, MMP-14 can be combined with a substrate such as Mca-Pro-Leu-Ala-Cys(Mob)-Trp-Ala-Arg-Dap(Dnp)-NH2 under assay conditions permitting cleavage by MMP-14. The assay is performed in the absence of the MMP-14 binding protein, and in the presence of increasing concentrations of the MMP-14 binding protein. The concentration of binding protein at which 50% of the MMP-14 activity (e.g., binding to the substrate) is inhibited is the IC50 value (Inhibitory Concentration 50%) or EC50 (Effective Concentration 50%) value for that binding protein.

| bind to and inhibit human MMP-14 | Molecule |
| --- | --- |
| bind to and inhibit human MMP-14 | B1 |
| bind to and inhibit human MMP-14 | B2 |

molecular target: T2, MMP-16 (Homo sapiens, UniProt P51512); assay: Cross-reactivity of Fabs and IgGs with MMP-16 (Example 8); type: biochemical; set-up: key to MMP-16 (cross-reactivity, class symbol): X: Does not inhibit MMP-16 at [I] = 100 nM level; settings: Fab 100 nM; 5 nM MMP16; 30 minutes at 30° C.; 10 μM substrate
Procedure: For the studies summarized in Tables 13 and 14, 100 nM anti-MMP-14 Fab/IgG were incubated with 5 nM MMP16 for 30 minutes at 30° C., 10 μM of substrate was added, and the MMP-16 activity was measured.

T2 sequence (P51512 120-607): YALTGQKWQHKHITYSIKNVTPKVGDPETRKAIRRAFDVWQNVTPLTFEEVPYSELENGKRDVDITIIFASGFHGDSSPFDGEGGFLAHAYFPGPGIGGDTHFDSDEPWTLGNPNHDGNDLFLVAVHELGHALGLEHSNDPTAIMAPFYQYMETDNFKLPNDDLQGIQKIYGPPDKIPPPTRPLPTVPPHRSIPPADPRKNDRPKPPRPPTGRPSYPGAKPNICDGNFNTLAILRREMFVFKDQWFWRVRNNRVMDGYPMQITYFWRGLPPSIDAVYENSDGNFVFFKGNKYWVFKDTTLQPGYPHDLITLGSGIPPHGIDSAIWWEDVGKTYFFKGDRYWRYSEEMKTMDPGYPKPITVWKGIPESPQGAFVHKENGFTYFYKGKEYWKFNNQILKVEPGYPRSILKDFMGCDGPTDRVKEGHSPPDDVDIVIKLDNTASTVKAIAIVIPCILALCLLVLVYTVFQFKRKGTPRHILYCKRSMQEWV

| MMP-16 (cross-reactivity, class symbol) | Molecule |
| --- | --- |
| X | B1 |
| X | B2 |

same assay, conditions: IgG 100 nM; 5 nM MMP16; 30 minutes at 30° C.; 10 μM substrate

| MMP-16 (cross-reactivity, class symbol) | Molecule |
| --- | --- |
| X | B1 |
| X | B2 |

molecular target: T2, MMP-16; assay: Cross-reactivity of Fabs with MMP-16 (Example 9); type: biochemical; set-up: key: X: Do not inhibit MMP-16 or MMP-24 at [I] = 100 nM level; Y: partially inhibit at [I] = 100 nM level; settings: Fab, 100 nM final inhibitor concentration, 5 nM MMP-16
Procedure: (§1) For the studies summarized in Table 15, 1 μM of anti-MMP-14 Fab/IgG (100 nM final inhibitor concentration) were incubated with 5 nM of MMP-16 or 5 nM of MMP-24 for 30 minutes at 30° C., 10 μM of substrate was added, and the MMP-16 activity was measured.

| MMP-16 (cross-reactivity, class symbol) | Molecule |
| --- | --- |
| X | B1 |
| X | B2 |

molecular target: MMP-24 (Homo sapiens, UniProt Q9Y5R2); assay: Cross-reactivity of Fabs with MMP-24 (Example 9); type: biochemical; set-up: key to MMP-24 (cross-reactivity, class symbol): X: Do not inhibit MMP-16 or MMP-24 at [I] = 100 nM level; Y: partially inhibit at [I] = 100 nM level; settings: Fab, 100 nM final inhibitor concentration; 5 nM MMP-24
Procedure: as §1

Sequence of MMP-24 (Q9Y5R2 156-645): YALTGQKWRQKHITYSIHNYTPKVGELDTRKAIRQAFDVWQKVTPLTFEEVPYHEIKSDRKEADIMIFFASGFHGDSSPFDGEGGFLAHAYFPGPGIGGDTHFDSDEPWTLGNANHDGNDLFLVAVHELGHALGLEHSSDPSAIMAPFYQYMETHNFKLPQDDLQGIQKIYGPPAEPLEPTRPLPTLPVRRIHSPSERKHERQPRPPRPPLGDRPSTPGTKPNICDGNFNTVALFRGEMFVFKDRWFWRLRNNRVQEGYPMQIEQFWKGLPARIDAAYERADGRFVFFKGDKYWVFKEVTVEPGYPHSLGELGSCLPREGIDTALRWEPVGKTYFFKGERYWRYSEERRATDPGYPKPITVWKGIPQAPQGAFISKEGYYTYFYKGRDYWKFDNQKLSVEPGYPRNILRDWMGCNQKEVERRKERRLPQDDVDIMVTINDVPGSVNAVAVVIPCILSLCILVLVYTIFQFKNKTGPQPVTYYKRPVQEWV

| MMP-24 inhibition | MMP-24 (cross-reactivity, class symbol) | Molecule |
| --- | --- | --- |
| Y 58% inhibition | – | B1 |
| – | X | B2 |
